Laboratory results taken from patent publication US20210246166A1 (Bayer, published 2021).
Numbered stars: 1 amine (or outer) side, 2 acyl side, 3 side chain; on linkers, the order of the positions; unused ones are H or OH. Bridge positions count the residues as written; N and C are the ends. Square brackets hold non-standard residues; d marks the D form. Ends that are not written are not given here. Phe(2,3-F2) = (2S)-3-(2,3-difluorophenyl)-2-aminopropanoic acid, O=C([C@H](Cc1cccc(F)c1F)N[*:1])[*:2]; X3 = (1R,3S)‑3‑(Amino)cyclopentanecarboxylic acid, O=C([C@@H]1CC[C@H](N[*:1])C1)[*:2]; X4 = (1S,3R)‑3‑(Amino)cyclopentanecarboxylic acid, O=C([C@H]1CC[C@@H](N[*:1])C1)[*:2]; X9 = (S)‑3‑(1-Pyrrolidine-2-yl)‑propionic acid, O=C(CC[C@@H]1CCCN1[*:1])[*:2]; X8 = (R)‑4‑Amino‑6‑methylheptanoic acid, CC(C)C[C@@H](CCC(=O)[*:2])N[*:1]; X6 = (S)‑(1-Piperidin-3-yl)‑acetic acid, O=C(C[C@@H]1CCCN([*:1])C1)[*:2]; Ida = iminodiacetic acid, O=C(CN(CC(=O)[*:3])[*:1])[*:2]; His(τ-Bzl) = N[C@@H](Cc1cn(Cc2ccccc2)cn1)C(=O)O; Oic = O=C(O)[C@@H]1C[C@@H]2CCCC[C@@H]2N1; βPro(3S) = O=C([C@H]1CCN([*:1])C1)[*:2]; tBuAla = CC(C)(C)C[C@H](N)C(=O)O; (3-Me)H = L-3-methylhistidine; Pen = CC(C)(S)[C@H](N)C(=O)O; β3hP = O=C(O)C[C@@H]1CCCN1; NMeA = CN[C@@H](C)C(=O)O; Nva = CCC[C@H](N)C(=O)O; Sar = CNCC(=O)O

B1: Example 453: ((N-Me)G)-IC+SRSLP-(Oic)-I-(Pen)+IP-((S)-3-(1-Pyrrolidine-2-yl)-propionic acid)-OH (peptide)
peptide: [Sar]ICSRSLP[Oic]I[Pen]IP[X9]-OH
modifications: disulfide 3-11; N-terminus assumed
SMILES: CC[C@H](C)[C@H](NC(=O)CNC)C(=O)N[C@H]1CSSC(C)(C)[C@@H](C(=O)N[C@H](C(=O)N2CCC[C@H]2C(=O)N2CCC[C@H]2CCC(=O)O)[C@@H](C)CC)NC(=O)[C@H]([C@@H](C)CC)NC(=O)[C@@H]2C[C@@H]3CCCC[C@@H]3N2C(=O)[C@@H]2CCCN2C(=O)[C@H](CC(C)C)NC(=O)[C@H](CO)NC(=O)[C@H](CCCNC(=N)N)NC(=O)[C@H](CO)NC1=O
B2: Example 447: ((N-Me)G)-IC+SRS-((tBu)A)-PPI-(Pen)+IP-((1-Bn)H)-OH (peptide)
peptide: [Sar]ICSRS[tBuAla]PPI[Pen]IP[His(τ-Bzl)]-OH
modifications: disulfide 3-11; N-terminus assumed
SMILES: CC[C@H](C)[C@H](NC(=O)CNC)C(=O)N[C@H]1CSSC(C)(C)[C@@H](C(=O)N[C@H](C(=O)N2CCC[C@H]2C(=O)N[C@@H](Cc2cn(Cc3ccccc3)cn2)C(=O)O)[C@@H](C)CC)NC(=O)[C@H]([C@@H](C)CC)NC(=O)[C@@H]2CCCN2C(=O)[C@@H]2CCCN2C(=O)[C@H](CC(C)(C)C)NC(=O)[C@H](CO)NC(=O)[C@H](CCCNC(=N)N)NC(=O)[C@H](CO)NC1=O
B3: Example 440: ((N-Me)G)-IC+SRS-((2S)-3-(2,3-difluorophenyl)-2-aminopropanoic acid)-PPI-(Pen)+IP-NH2 (peptide)
peptide: [Sar]ICSRS[Phe(2,3-F2)]PPI[Pen]IP-NH2
modifications: disulfide 3-11; N-terminus assumed
SMILES: CC[C@H](C)[C@H](NC(=O)CNC)C(=O)N[C@H]1CSSC(C)(C)[C@@H](C(=O)N[C@H](C(=O)N2CCC[C@H]2C(N)=O)[C@@H](C)CC)NC(=O)[C@H]([C@@H](C)CC)NC(=O)[C@@H]2CCCN2C(=O)[C@@H]2CCCN2C(=O)[C@H](Cc2cccc(F)c2F)NC(=O)[C@H](CO)NC(=O)[C@H](CCCNC(=N)N)NC(=O)[C@H](CO)NC1=O
B4: Example 454: ((N-Me)G)-IC+SRSLP-(Oic)-I-(Pen)+IPN-OH (peptide)
peptide: [Sar]ICSRSLP[Oic]I[Pen]IPN-OH
modifications: disulfide 3-11; N-terminus assumed
SMILES: CC[C@H](C)[C@H](NC(=O)CNC)C(=O)N[C@H]1CSSC(C)(C)[C@@H](C(=O)N[C@H](C(=O)N2CCC[C@H]2C(=O)N[C@@H](CC(N)=O)C(=O)O)[C@@H](C)CC)NC(=O)[C@H]([C@@H](C)CC)NC(=O)[C@@H]2C[C@@H]3CCCC[C@@H]3N2C(=O)[C@@H]2CCCN2C(=O)[C@H](CC(C)C)NC(=O)[C@H](CO)NC(=O)[C@H](CCCNC(=N)N)NC(=O)[C@H](CO)NC1=O
B5: Example 452: ((N-Me)G)-IC+SRSLP-(Oic)-I-(Pen)+IP-((1S,3R)-3-(Amino)cyclopentanecarboxylic acid)-OH (peptide)
peptide: [Sar]ICSRSLP[Oic]I[Pen]IP[X4]-OH
modifications: disulfide 3-11; N-terminus assumed
SMILES: CC[C@H](C)[C@H](NC(=O)CNC)C(=O)N[C@H]1CSSC(C)(C)[C@@H](C(=O)N[C@H](C(=O)N2CCC[C@H]2C(=O)N[C@@H]2CC[C@H](C(=O)O)C2)[C@@H](C)CC)NC(=O)[C@H]([C@@H](C)CC)NC(=O)[C@@H]2C[C@@H]3CCCC[C@@H]3N2C(=O)[C@@H]2CCCN2C(=O)[C@H](CC(C)C)NC(=O)[C@H](CO)NC(=O)[C@H](CCCNC(=N)N)NC(=O)[C@H](CO)NC1=O
B6: Example 449: ((N-Me)G)-IC+SRSLP-(Oic)-I-(Pen)+IP-((1R,3S)-3-(Amino)cyclopentanecarboxylic acid)-OH (peptide)
peptide: [Sar]ICSRSLP[Oic]I[Pen]IP[X3]-OH
modifications: disulfide 3-11; N-terminus assumed
SMILES: CC[C@H](C)[C@H](NC(=O)CNC)C(=O)N[C@H]1CSSC(C)(C)[C@@H](C(=O)N[C@H](C(=O)N2CCC[C@H]2C(=O)N[C@H]2CC[C@@H](C(=O)O)C2)[C@@H](C)CC)NC(=O)[C@H]([C@@H](C)CC)NC(=O)[C@@H]2C[C@@H]3CCCC[C@@H]3N2C(=O)[C@@H]2CCCN2C(=O)[C@H](CC(C)C)NC(=O)[C@H](CO)NC(=O)[C@H](CCCNC(=N)N)NC(=O)[C@H](CO)NC1=O
B7: Example 456: ((N-Me)G)-IC+SRSLP-(Oic)-I-(Pen)+IP-((S)-Pyrrolidine-3-carboxylic acid)-OH (peptide)
peptide: [Sar]ICSRSLP[Oic]I[Pen]IP[βPro(3S)]-OH
modifications: disulfide 3-11; N-terminus assumed
SMILES: CC[C@H](C)[C@H](NC(=O)CNC)C(=O)N[C@H]1CSSC(C)(C)[C@@H](C(=O)N[C@H](C(=O)N2CCC[C@H]2C(=O)N2CC[C@H](C(=O)O)C2)[C@@H](C)CC)NC(=O)[C@H]([C@@H](C)CC)NC(=O)[C@@H]2C[C@@H]3CCCC[C@@H]3N2C(=O)[C@@H]2CCCN2C(=O)[C@H](CC(C)C)NC(=O)[C@H](CO)NC(=O)[C@H](CCCNC(=N)N)NC(=O)[C@H](CO)NC1=O
B8: Example 448: ((N-Me)G)-IC+RRS-((tBu)A)-PP-(Nva)-(Pen)+IP-NH2 (peptide)
peptide: [Sar]ICRRS[tBuAla]PP[Nva][Pen]IP-NH2
modifications: disulfide 3-11; N-terminus assumed
SMILES: CCC[C@@H]1NC(=O)[C@@H]2CCCN2C(=O)[C@@H]2CCCN2C(=O)[C@H](CC(C)(C)C)NC(=O)[C@H](CO)NC(=O)[C@H](CCCNC(=N)N)NC(=O)[C@H](CCCNC(=N)N)NC(=O)[C@@H](NC(=O)[C@@H](NC(=O)CNC)[C@@H](C)CC)CSSC(C)(C)[C@@H](C(=O)N[C@H](C(=O)N2CCC[C@H]2C(N)=O)[C@@H](C)CC)NC1=O
B9: Example 451: ((N-Me)G)-IC+SRSLP-(Oic)-I-(Pen)+IP-((S)-(1-Piperidin-3-yl)-acetic acid)-OH (peptide)
peptide: [Sar]ICSRSLP[Oic]I[Pen]IP[X6]-OH
modifications: disulfide 3-11; N-terminus assumed
SMILES: CC[C@H](C)[C@H](NC(=O)CNC)C(=O)N[C@H]1CSSC(C)(C)[C@@H](C(=O)N[C@H](C(=O)N2CCC[C@H]2C(=O)N2CCC[C@@H](CC(=O)O)C2)[C@@H](C)CC)NC(=O)[C@H]([C@@H](C)CC)NC(=O)[C@@H]2C[C@@H]3CCCC[C@@H]3N2C(=O)[C@@H]2CCCN2C(=O)[C@H](CC(C)C)NC(=O)[C@H](CO)NC(=O)[C@H](CCCNC(=N)N)NC(=O)[C@H](CO)NC1=O
B10: Example 441: ((N-Me)G)-IC+SRS-((2S)-3-(2,3-difluorophenyl)-2-aminopropanoic acid)-P-(Oic)-I-(Pen)+IP-NH2 (peptide)
peptide: [Sar]ICSRS[Phe(2,3-F2)]P[Oic]I[Pen]IP-NH2
modifications: disulfide 3-11; N-terminus assumed
SMILES: CC[C@H](C)[C@H](NC(=O)CNC)C(=O)N[C@H]1CSSC(C)(C)[C@@H](C(=O)N[C@H](C(=O)N2CCC[C@H]2C(N)=O)[C@@H](C)CC)NC(=O)[C@H]([C@@H](C)CC)NC(=O)[C@@H]2C[C@@H]3CCCC[C@@H]3N2C(=O)[C@@H]2CCCN2C(=O)[C@H](Cc2cccc(F)c2F)NC(=O)[C@H](CO)NC(=O)[C@H](CCCNC(=N)N)NC(=O)[C@H](CO)NC1=O
B11: Example 450: ((N-Me)G)-IC+SRSLP-(Oic)-I-(Pen)+IP-((R)-4-Amino-6-methylheptanoic acid)-OH (peptide)
peptide: [Sar]ICSRSLP[Oic]I[Pen]IP[X8]-OH
modifications: disulfide 3-11; N-terminus assumed
SMILES: CC[C@H](C)[C@H](NC(=O)CNC)C(=O)N[C@H]1CSSC(C)(C)[C@@H](C(=O)N[C@H](C(=O)N2CCC[C@H]2C(=O)N[C@H](CCC(=O)O)CC(C)C)[C@@H](C)CC)NC(=O)[C@H]([C@@H](C)CC)NC(=O)[C@@H]2C[C@@H]3CCCC[C@@H]3N2C(=O)[C@@H]2CCCN2C(=O)[C@H](CC(C)C)NC(=O)[C@H](CO)NC(=O)[C@H](CCCNC(=N)N)NC(=O)[C@H](CO)NC1=O
B12: Example 455: ((N-Me)G)-IC+SRSLP-(Oic)-I-(Pen)+IP-(beta-homo-P)-OH (peptide)
peptide: [Sar]ICSRSLP[Oic]I[Pen]IP[β3hP]-OH
modifications: disulfide 3-11; N-terminus assumed
SMILES: CC[C@H](C)[C@H](NC(=O)CNC)C(=O)N[C@H]1CSSC(C)(C)[C@@H](C(=O)N[C@H](C(=O)N2CCC[C@H]2C(=O)N2CCC[C@H]2CC(=O)O)[C@@H](C)CC)NC(=O)[C@H]([C@@H](C)CC)NC(=O)[C@@H]2C[C@@H]3CCCC[C@@H]3N2C(=O)[C@@H]2CCCN2C(=O)[C@H](CC(C)C)NC(=O)[C@H](CO)NC(=O)[C@H](CCCNC(=N)N)NC(=O)[C@H](CO)NC1=O

Experiments:
[1] = biological target: T1, recombinant human MASP1 active protease (amino acids 297-699, C-terminal His Tag) (human, UniProt P48740 297-699); experiment: cell-based or functional assay
T1 sequence: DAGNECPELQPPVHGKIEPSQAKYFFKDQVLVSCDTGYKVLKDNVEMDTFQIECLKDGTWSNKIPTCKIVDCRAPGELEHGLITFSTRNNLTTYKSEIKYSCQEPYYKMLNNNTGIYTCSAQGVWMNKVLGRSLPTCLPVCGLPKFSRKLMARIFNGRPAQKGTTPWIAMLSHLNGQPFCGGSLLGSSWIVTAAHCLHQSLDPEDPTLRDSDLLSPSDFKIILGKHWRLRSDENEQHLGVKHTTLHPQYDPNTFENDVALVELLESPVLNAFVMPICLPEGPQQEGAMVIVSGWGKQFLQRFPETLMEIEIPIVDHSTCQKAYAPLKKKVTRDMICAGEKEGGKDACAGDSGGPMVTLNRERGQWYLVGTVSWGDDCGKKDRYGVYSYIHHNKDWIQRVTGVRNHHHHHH

[2] = biological target: recombinant human MASP2 active protease (amino acids 297-686, C-terminal His Tag) (human, UniProt O00187 297-686); experiment: cell-based or functional assay
Sequence of recombinant human MASP2 active protease (amino acids 297-686, C-terminal His Tag) (O00187 other isoform, or with tags, fused parts or gaps limits assumed): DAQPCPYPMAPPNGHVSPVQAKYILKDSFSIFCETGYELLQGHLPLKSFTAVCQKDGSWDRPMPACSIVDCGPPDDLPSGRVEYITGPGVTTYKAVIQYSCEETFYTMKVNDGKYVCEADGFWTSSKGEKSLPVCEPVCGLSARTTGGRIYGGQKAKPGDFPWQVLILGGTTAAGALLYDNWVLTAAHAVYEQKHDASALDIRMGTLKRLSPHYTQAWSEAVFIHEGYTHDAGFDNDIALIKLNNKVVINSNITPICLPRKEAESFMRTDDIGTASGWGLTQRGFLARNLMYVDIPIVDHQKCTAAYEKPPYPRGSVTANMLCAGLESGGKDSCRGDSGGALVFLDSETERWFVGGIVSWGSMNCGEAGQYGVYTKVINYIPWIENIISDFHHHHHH

| Binder | human MASP1 IC50 [1] [nM] | human MASP2 IC50 [2] [nM] |
| --- | --- | --- |
| B1 | 2.5 | 56 |
| [NMeA]ICSRS[tBuAla]P[(3R,6R)‑1,1‑Difluoro‑5‑azaspiro(2.4)heptane‑6‑carboxylic acid (enantiomer 2)]I[Pen]IP-NH2 (disulfide 3-11) | 3 | 300 |
| B2 | 4.7 | 65.5 |
| B3 | 18 | 26 |
| B4 | 2 | 99 |
| [(3-Me)H]ICSRSLP[Oic]I[Pen]IP-NH2 (disulfide 3-11) [Example 444: ((3-Me)H)-IC+SRSLP-(Oic)-I-(Pen)+IP-NH2] | 2.8 | 61 |
| B5 | 2 | 100 |
| B6 | 1.8 | 93 |
| B7 | 1.9 | 110 |
| B8 | 440 | 1000 |
| B9 | 2.6 | 61 |
| [Sar]ICSRSLP[Oic]I[Pen]IP[Ida]-OH (disulfide 3-11) [Example 446: ((N-Me)G)-IC+SRSLP-(Oic)-I-(Pen)+IP-(Ida)-OH] | 2.7 | 72 |
| B10 | 65 | 220 |
| B11 | 5.8 | 230 |
| B12 | 2.9 | 85 |
| [NMeA]ICSRS[tBuAla]P[(3R,6R)‑1,1‑Difluoro‑5‑azaspiro(2.4)heptane‑6‑carboxylic acid (enantiomer 1)]I[Pen]IP-NH2 (disulfide 3-11) | 0.78 | 74 |
